Assay results reported in patent US20080124811A1.

What was measured:
[1] = substrate: T1, BNP single alanine substituted peptide, R13 to alanine (human); test: BIAcore SPR, AM1 captured on goat anti-human Fc, peptide at 10 nM, 1800 s dissociation
T1 sequence (peptide, cyclic hBNP 1-32): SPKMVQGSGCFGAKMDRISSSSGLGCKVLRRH

[2] = substrate: T2, BNP single alanine substituted peptide, F11 to alanine (human); test: as above
T2 sequence (peptide, cyclic hBNP 1-32): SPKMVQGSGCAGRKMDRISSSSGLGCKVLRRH

fold increase in off-rate against WT BNP [1]: > 10 fold
fold increase in off-rate against WT BNP [2]: > 10 fold
B1: 106.3 AM1 chimeric antibody (antibody, V domains shown)
VH: QIQLVQSGPELRKPGETVKISCKGSGYTFTHYGINWVKQTPRKDLKWMGWINTHTGEAYYADDFKGRFAFSLETSANTAYLQINNLNNGDMGTYFCTRSHRFGLDYWGQGTSVTVSS
VL: DNVLTQSPPSLAVSLGQRATISCKANWPVDYNGDSYLNWYQQKPGQPPKFLIYAASNLESGIPARFSGSGSGTDFNLNIHPVEEEDAATYYCQQSNEDPFTFGSGTKLEIK
modifications: Conjugated to acridinium or biotinylated in the sandwich assays (Examples 4 and 7); the sites are not defined.
